{"source": "paper PMC12403569", "about": "“The regulatory network of Coprinopsis cinerea transcription factor Skn7 collaborates with bHLH1 during fungal-fungal interactions”", "binders": {"B1": {"name": "lcc9 promoter probe (dsDNA)", "DNA 1": "CATTCTGTCTAGAAT", "DNA 2": "ATTCTAGACAGAATG"}, "B2": {"name": "sod2 promoter probe (dsDNA)", "DNA 1": "AGAAGGATCTAGAGACTCGG", "DNA 2": "CCGAGTCTCTAGATCCTTCT"}, "B3": {"name": "gst promoter probe (dsDNA)", "DNA 1": "GATGTGTCGACGTCTGA", "DNA 2": "TCAGACGTCGACACATC"}, "B4": {"name": "nrps promoter probe (dsDNA)", "DNA 1": "TAACCATGTCCAACTCTAAT", "DNA 2": "ATTAGAGTTGGACATGGTTA"}, "B5": {"name": "easA promoter probe (dsDNA)", "DNA 1": "TGGTGGACAAGTTTCCGT", "DNA 2": "ACGGAAACTTGTCCACCA"}, "B6": {"name": "lcc9 promoter probe for bHLH1 (dsDNA)", "DNA 1": "ATTCATTCTGTCTAGAATGGG", "DNA 2": "CCCATTCTAGACAGAATGAAT"}}, "key": {"Skn7 DBD": {"target": "T1, Skn7 DBD (Coprinopsis cinerea, UniProt A8PG35 214-443)", "T1 sequence": "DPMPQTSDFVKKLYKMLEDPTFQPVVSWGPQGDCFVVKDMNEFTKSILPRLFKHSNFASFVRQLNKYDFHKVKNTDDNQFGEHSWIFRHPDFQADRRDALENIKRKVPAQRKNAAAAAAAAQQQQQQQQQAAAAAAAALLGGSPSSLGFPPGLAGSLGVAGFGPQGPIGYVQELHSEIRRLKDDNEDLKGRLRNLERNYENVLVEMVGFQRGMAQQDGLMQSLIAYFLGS", "test": "EMSA; poly d(I-C); 25 mM HEPES, 4 mM DTT, 100 mM KCl, 2 mM MgCl2, 10% glycerol, 0.01 mg/mL BSA, pH 7.3; 200 ng probe, 200 ng poly d(I-C), 20 µL; temperature not stated", "settings": "protein: recombinant; tags: His-SUMO, removed with Ulp1; label: 5'-6-carboxyfluorescein"}, "truncated bHLH1": {"target": "T2, truncated bHLH1 (Coprinopsis cinerea, UniProt A8P5K0 311-490)", "T2 sequence": "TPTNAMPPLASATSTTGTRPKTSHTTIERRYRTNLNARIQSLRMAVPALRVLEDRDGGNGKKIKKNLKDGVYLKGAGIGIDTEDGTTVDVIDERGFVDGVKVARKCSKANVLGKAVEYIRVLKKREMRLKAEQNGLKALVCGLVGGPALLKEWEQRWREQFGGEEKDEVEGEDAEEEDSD", "test": "EMSA; 25 mM HEPES, 4 mM DTT, 100 mM KCl, 2 mM MgCl2, 10% glycerol, 0.01 mg/mL BSA, pH 7.3; 200 ng probe, 200 ng poly d(I-C), 20 µL; temperature not stated", "settings": "protein: recombinant; tags: His; chain copies: 2"}}, "data": [{"binder": "B1", "values": [{"measurement": "binding result", "setting": "Skn7 DBD", "result": "binds"}]}, {"binder": "B2", "values": [{"measurement": "binding result", "setting": "Skn7 DBD", "result": "binds"}]}, {"binder": "B3", "values": [{"measurement": "binding result", "setting": "Skn7 DBD", "result": "binds"}]}, {"binder": "B4", "values": [{"measurement": "binding result", "setting": "Skn7 DBD", "result": "binds"}]}, {"binder": "B5", "values": [{"measurement": "binding result", "setting": "Skn7 DBD", "result": "binds"}]}, {"binder": "B6", "values": [{"measurement": "binding result", "setting": "truncated bHLH1", "result": "binds"}]}]}
